{"source": "paper PMC9688306", "about": "“Construction of Aptamer-Based Nanobiosensor for Breast Cancer Biomarkers Detection Utilizing g-C3N4/Magnetic Nano-Structure”", "target": "CA 15-3 (Cancer Antigen 15-3) (UniProt P15941 24-1097)", "sequence (P15941 24-1097)": "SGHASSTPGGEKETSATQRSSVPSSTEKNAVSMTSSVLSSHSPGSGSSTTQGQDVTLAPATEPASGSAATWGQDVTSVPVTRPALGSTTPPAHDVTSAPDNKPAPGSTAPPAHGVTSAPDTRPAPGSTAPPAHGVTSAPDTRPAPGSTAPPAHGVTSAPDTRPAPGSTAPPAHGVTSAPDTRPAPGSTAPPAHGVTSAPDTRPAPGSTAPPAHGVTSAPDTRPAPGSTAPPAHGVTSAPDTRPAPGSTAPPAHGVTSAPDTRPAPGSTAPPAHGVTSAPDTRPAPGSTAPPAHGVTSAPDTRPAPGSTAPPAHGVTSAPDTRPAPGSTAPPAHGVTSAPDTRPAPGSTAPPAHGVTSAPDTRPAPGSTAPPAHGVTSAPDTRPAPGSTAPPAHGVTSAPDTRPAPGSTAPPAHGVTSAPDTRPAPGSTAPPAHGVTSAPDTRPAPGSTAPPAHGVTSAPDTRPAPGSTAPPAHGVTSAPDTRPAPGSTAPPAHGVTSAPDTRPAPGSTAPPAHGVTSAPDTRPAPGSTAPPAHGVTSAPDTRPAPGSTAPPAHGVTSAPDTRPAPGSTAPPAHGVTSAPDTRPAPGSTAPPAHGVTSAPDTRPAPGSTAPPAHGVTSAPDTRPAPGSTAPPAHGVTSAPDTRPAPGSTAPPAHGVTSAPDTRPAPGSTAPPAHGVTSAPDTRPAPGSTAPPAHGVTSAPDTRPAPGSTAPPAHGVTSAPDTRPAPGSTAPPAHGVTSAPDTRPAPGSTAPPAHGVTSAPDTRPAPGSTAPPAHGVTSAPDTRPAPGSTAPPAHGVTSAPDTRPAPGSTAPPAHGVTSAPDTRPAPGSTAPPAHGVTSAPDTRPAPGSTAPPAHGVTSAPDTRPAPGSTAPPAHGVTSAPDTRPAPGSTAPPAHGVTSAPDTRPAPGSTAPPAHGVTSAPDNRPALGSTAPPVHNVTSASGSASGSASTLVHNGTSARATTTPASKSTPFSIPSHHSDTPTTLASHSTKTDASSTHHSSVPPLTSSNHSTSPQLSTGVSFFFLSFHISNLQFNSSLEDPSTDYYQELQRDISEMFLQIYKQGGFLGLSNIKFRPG", "test": "electrochemical aptasensor (CV, SWV, EIS); label-free, ferri/ferrocyanide redox probe; aptamer on g-C3N4/Fe3O4; linear 10-90 U/mL; PBS pH 7.4 (0.1 M), room temperature, 35 min incubation; 0.2 mM ferricyanide probe (label-free) or methylene blue in PBS (label-based)"}
{"binder": "GAAGTGAATATGACAGATCACAACT (ssDNA)", "note": "[CA 15-3 aptamer]", "values": [{"measurement": "binding result", "result": "binds"}]}
